Data as given in FireProtDB (doi:10.1002/pro.100).

B1: Prolactin, P01236 (parent)
chain: MNIKGSPWKGSLLLLLVSNLLLCQSVAPLPICPGGAARCQVTLRDLFDRAVVLSHYIHNLSSEMFSEFDKRYTHGRGFITKAINSCHTSSLATPEDKEQAQQMNQKDFLSLIVSILRSWNEPLYHLVTEVRGMQEAPEAILSKAVEIEEQTKRLLEGMELIVSQVHPETKENEIYPVWSGLPSLQMADEESRLSAYYNLLHCLRRDSHKIDNYLKLLKCRIIHNNNC

Variants of: B1
Conditions: Homo sapiens, 25 °C, Urea, Fluorescence, Potassium phosphate 25 mM, NaCl 25 mM, reversible: Yes, structure 2Q98, whole UniProt chain shown

Variant	ddG of mutation (higher = less stable) (pH 7.8) [kcal/mol]	denaturant m value (pH 7.8) [kcal/mol/M]	denaturant midpoint (higher = more stable) (pH 7.8) [M]	unfolding free energy (pH 7.8) [kcal/mol]	ddG of mutation (higher = less stable) (pH 5.8) [kcal/mol]	denaturant m value (pH 5.8) [kcal/mol/M]	denaturant midpoint (higher = more stable) (pH 5.8) [M]	unfolding free energy (pH 5.8) [kcal/mol]
MNIKGSPWKGSLLLLLVSNLLLCQSVAPLPICPGGAARCQVTLRDLFDRAVVLSAYIANLSSEMFSEFDKRYTHGRGFITKAINSCHTSSLATPEDKEQAQQMNQKDFLSLIVSILRSWNEPLYHLVTEVRGMQEAPEAILSKAVEIEEQTKRLLEGMELIVSQVHPETKENEIYPVWSGLPSLQMADEESRLSAYYNLLHCLRRDSHKIDNYLKLLKCRIIHNNNC [H55A H58A]	-1.42	1.39	6.94	9.62	–	–	–	–
MNIKGSPWKGSLLLLLVSNLLLCQSVAPLPICPGGAARCQVTLRDLFDRAVVLSHYIHNLSSEMFSEFDKRYTHGRGFITKAINSCHTSSLATPEDKEQAQQMNQKDFLSLIVSILRSWNEPLYHLVTEVRGMQEAPEAILSKAVEIEEQTKRLLEGMELIVSQVHPETKENEIYPVWSGLPSLQMADEESRLSAYYNLLHCLRRDSHKIDNYLKLLKCRIIANNNC [H223A]	-0.12	1.42	5.85	8.32	0.03	0.81	5.29	4.27
MNIKGSPWKGSLLLLLVSNLLLCQSVAPLPICPGGAARCQVTLRDLFDRAVVLSHYIHNLSSEMFSEFDKRYTHGRGFITKAINSCHTSSLATPEDKEQAQQMNQKDFLSLIVSILRSWNEPLYHLVTEVRGMQEAPEAILSKAVEIEEQTKRLLEGMELIVSQVHPETKENEIYPVWSGLPSLQMADEESRLSAYYNLLHCLRRDSAKIDNYLKLLKCRIIHNNNC [H208A]	0.04	1.28	6.36	8.16	-1.39	0.96	5.94	5.69
